According to patent US7510715:
Like-named read-outs stand apart in the source and are kept apart here.

Key:
[1] = target: human CD4 on PM1 cells (human) (UniProt P01730); assay: flow cytometry, FITC-Leu 3a on PM1 cells after RANTES + MIP-1β (1 µg/mL each, 2 hours at 37° C.); isotype control subtracted
[2] = target: human CD4 on PM1 cells (human) (UniProt P01730)
[3] = target: human CD4 on PM1 cells (human) (UniProt P01730); assay: flow cytometry, FITC-Leu 3a on PM1 cells, no treatment; isotype control subtracted
[4] = target: human CCR5 on cells (CEM.NKR-CCR5 transfectants; PM1 T cells; PBMCs; macrophages) (human) (UniProt P51681); assay: cell-based or functional assay
[5] = target: human CCR5 on cells (CEM.NKR-CCR5 transfectants; PM1 T cells; PBMCs; macrophages) (human) (UniProt P51681); assay: flow cytometry, FITC-2D7 on PM1 cells after RANTES + MIP-1β (1 µg/mL each, 2 hours at 37° C.); isotype control subtracted
[6] = target: human CCR5 on cells (CEM.NKR-CCR5 transfectants; PM1 T cells; PBMCs; macrophages) (human) (UniProt P51681)
[7] = target: human CCR5 on cells (CEM.NKR-CCR5 transfectants; PM1 T cells; PBMCs; macrophages) (human) (UniProt P51681); assay: flow cytometry, FITC-2D7 on PM1 cells, no treatment; isotype control subtracted

Q: “FITC-conjugated Leu 3a (anti-hCD4; Becton Dickinson) (antibody)” was tested. Which ΔMFC [1] did it give?
A: The ΔMFC was 109 ΔMFC.

Q: What about the ΔMFC [2] of the same substance?
A: The ΔMFC was 105 ΔMFC.

Q: And the ΔMFC [3]?
A: The ΔMFC was 112 ΔMFC.

Q: With “recombinant Plasmodium falciparum cyclophilin (PfCyp19) (enzyme)” as the substance, how does the Inhibition, % of 12E1(JR-FL)/PM1 fusion, P falciparum cyclophilin at 10 µg/mL [4] read?
A: The Inhibition, % of 12E1(JR-FL)/PM1 fusion, P falciparum cyclophilin at 10 µg/mL was 0%.

Q: Which ΔMFC [5] does the source give for “FITC-conjugated 2D7 (anti-CCR5; Pharmingen) (antibody)” here?
A: Its ΔMFC is 35 ΔMFC.

Q: And the ΔMFC [6]?
A: Its ΔMFC is 104 ΔMFC.

Q: And the ΔMFC [7]?
A: The ΔMFC was 119 ΔMFC.
